In patent US20200087681A1:

What was measured:
CD19 = CD19 (UniProt P15391); test: cell-based or functional assay
[1] = target: human serum immunoglobulin (IgG) (human); test: flow cytometry of cFcR-transduced human T cells incubated with human serum IgG, co-stained for CD16 and IgG

Sequence of UniProt P15391 (P15391 20-556 limits assumed): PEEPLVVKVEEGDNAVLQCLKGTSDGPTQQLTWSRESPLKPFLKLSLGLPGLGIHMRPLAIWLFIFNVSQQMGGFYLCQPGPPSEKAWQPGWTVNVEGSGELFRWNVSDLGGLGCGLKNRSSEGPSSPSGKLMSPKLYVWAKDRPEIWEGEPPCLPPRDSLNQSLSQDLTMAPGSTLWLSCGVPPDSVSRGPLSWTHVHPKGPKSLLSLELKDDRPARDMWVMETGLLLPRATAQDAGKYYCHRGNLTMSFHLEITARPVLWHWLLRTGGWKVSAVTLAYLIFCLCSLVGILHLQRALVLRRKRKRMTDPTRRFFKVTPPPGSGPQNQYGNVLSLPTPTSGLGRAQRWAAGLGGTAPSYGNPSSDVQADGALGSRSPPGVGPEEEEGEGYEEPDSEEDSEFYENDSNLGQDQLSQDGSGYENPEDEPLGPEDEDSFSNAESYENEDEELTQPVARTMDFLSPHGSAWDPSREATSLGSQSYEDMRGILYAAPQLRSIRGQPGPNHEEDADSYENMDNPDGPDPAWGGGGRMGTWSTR

| Substance | degranulation assay, CD107a upregulation on TCR+ CAR19+ T cells after 4 hr with CD19+ Daudi (CD19) | degranulation assay, CD107a upregulation on TCR- CAR19+ T cells after 4 hr with CD19+ Daudi (CD19) | percent of cells with CD16 and IgG co-staining [1] |
| --- | --- | --- | --- |
| CD3z-41BB-CD8-CAR19scFv (4G7) chimeric antigen receptor (CAR19) (from UniProt P01732 138-206; Q07011 214-255; P20963 52-164) | 53% | 57% |  |
| chimeric FcR (cFcR) (from UniProt P08637 17-208; P01732 138-206; Q07011 214-255; P20963 52-164) (receptor) |  |  | 7.5% |
